From article PMC7156744, “CdbA is a DNA-binding protein and c-di-GMP receptor important for nucleoid organization and segregation in Myxococcus xanthus” (Nature Communications, 2020)
Substitutions are numbered along the chain they refer to.

Assays:
[1] = molecular target: T1, CdbA K8A/S10A-His6 K59A;S61A (Myxococcus xanthus DK1622) (UniProt Q1D489); test: EMSA; conditions: 10x buffer: 380 mM HEPES, 380 mM NaCl, 50 mM MgCl2, 50% glycerol, 10 mM DTT, 15 ng/ul poly(dI-dC), 50 ng probe, 30 C 30 min, 10% PAGE 1x TBE 4 C, pH not …
T1 sequence: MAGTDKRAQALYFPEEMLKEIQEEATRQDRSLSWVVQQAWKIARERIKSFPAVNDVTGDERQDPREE

[2] = molecular target: T2, CdbA R27A/R30A-His6 R78A;R81A (Myxococcus xanthus DK1622) (UniProt Q1D489); test: EMSA; conditions: 10x buffer: 380 mM HEPES, 380 mM NaCl, 50 mM MgCl2, 50% glycerol, 10 mM DTT, 15 ng/ul poly(dI-dC), 50 ng probe, 30 C 30 min, 10% PAGE 1x TBE 4 C, pH not …
T2 sequence: T1 sequence with A8K, A10S, R27A, R30A

## ACTTGGGTCTCCGGGGCGGATTCGGGGTGACGACCTGAACACACCTGGGCCGTTATCCGACAGACTCCCAAGTGGGTCAACGGTTTCCAAGGACTCATTCCGAGGTCGCACGGTCCGTCCCCGTGCTCGTCCAGTTGCACGTAAGCTGTGCAACCATGCGCGAAAAAGGAAACGCCCCGGACTCCACGAGGAAGTCCGGGGCGCTTCGGAAAGAGGGACCGCCTAGAGAAATCTCCAGGCGGGCCCGTGG (double strand) [cdbAB promoter]
[1]
  binding: no binding
[2]
  binding: no binding
